Assay results from article PMC6342527.
Values belong to the substance of their own block, whether it stands above or below them.

Key:
Experiment in all cases: cryo-EM structure; single-particle cryo-EM of SEC-purified channel in 20 mM Tris pH 7.5, 50 mM NaCl, 1 mM DDM, 0.1 mM CHS; 1 uM CaCl2 added (Ca2+-bound); homopentamer
[1] = target: chicken BEST1, residues 1-345 (BEST1_(345)) (chicken)
[2] = target: chicken BEST1, residues 1-345, W287F mutant (BEST1_(345) W287F) (chicken)
[3] = target: chicken BEST1, residues 1-405 (BEST1_(405)) (chicken)

stoichiometry N [1]: 5
Substance: chicken BEST1, residues 1-345 (BEST1_(345)) (domain or fragment)

stoichiometry N [2]: 5
Substance: chicken BEST1, residues 1-345, W287F mutant (BEST1_(345) W287F) (domain or fragment)

stoichiometry N [3]: 5
Substance: chicken BEST1, residues 1-405 (BEST1_(405)) (domain or fragment)
